In the supplement of paper PMC12042874:
± gives the uncertainty stated by the source.

experiment: amyloid nucleation score (Sup35N fusion, yeast selection) (log enrichment); library NNK2; higher = more nucleation; inactive = no reads after selection
Outline: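 Output and input plasmid inserts were sequenced by Illumina after psi-negative yeast carrying Sup35N fused to peptides of 20 random codons had been induced 24 hours with 100 μM copper sulfate and grown 7 days at 30°C on medium lacking adenine and uracil. The nucleation score is the DiMSum log enrichment of output over input reads, centred on the mode score of non-aggregating sequences. Sequences with under 100 input reads were excluded.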

Compared with GICLSNTGRMCFG, FGVLYLDFCSIA is higher in amyloid nucleation score: 0.009 ± 0.39 for the first, 3.93 ± 0.087 for the second.

Going from YVSHLMFKVSGLPWLGRCNY to TPNIGSSRVVMLSLQLLN, the amyloid nucleation score rises from 4.78 ± 0.087 to 6.955 ± 0.054.

FVLCLDLHDESQERWETIRR and GSCNASVPVQV are within error of each other in amyloid nucleation score: 0.925 ± 0.67 for the first, 0.057 ± 0.76 for the second.

Going from VTMIPA to FSIGCVMGLAINLSGFALWV, the amyloid nucleation score rises from -0.207 ± 0.63 to 1.84 ± 0.14.

First: EYNRTLWSCYHWFVHVPPTN
Second: GHYKFSIVFPVACLIDRFSF
The amyloid nucleation score of the first is lower: -0.171 ± 1 for the first, 5.13 ± 0.089 for the second.

PSPVIWPISSPGFQSLCICS and SNEIQNII are within error of each other in amyloid nucleation score: -0.38 ± 0.63 for the first, 0.57 ± 0.81 for the second.

Going from MMAIHVRMLARQSFGRICFM to STCLTLSMRLLA, the amyloid nucleation score rises from 3.45 ± 0.098 to 3.84 ± 0.078.

MMLSLANNHGSL and FRYRIYGGHLTINRIIYSLV are within error of each other in amyloid nucleation score: 0.174 ± 0.28 for the first, -0.702 ± 1.1 for the second.

TFMKGTVIT and NDSVRTVGCIQYMMRIASVF are within error of each other in amyloid nucleation score: 0.759 ± 0.74 for the first, 0.783 ± 0.57 for the second.

Compared with IICAKDMFNLFIKVRQYGWS, PAITFSSYQSIANYWRGPRM is higher in amyloid nucleation score: 4.698 ± 0.038 for the first, 7.899 ± 0.026 for the second.

Compared with TDLIAVGCPLMYSMRE, CITVFAVINMQSAAVSCKQV is higher in amyloid nucleation score: 2.04 ± 0.35 for the first, 6.72 ± 0.07 for the second.

Going from HVILM to DSCFRVLHRTGFVFMSWLII, the amyloid nucleation score rises from 1.65 ± 0.33 to 4.82 ± 0.082.

PSGGFTTSMVTDDIDVSARH and GLSNLR are within error of each other in amyloid nucleation score: 0.708 ± 0.53 for the first, -0.114 ± 1 for the second.

Going from GLYANFVPAIRTDGRGWRFW to IEDYACMLNREMG, the amyloid nucleation score rises from -0.352 ± 0.48 to 5.36 ± 0.049.

First: MCLYVRLWFMSPVSLDSSAL
Second: TWNLMNKVYIVPGLDPDTRS
The amyloid nucleation score of the first is lower: -0.512 ± 0.55 for the first, 7.225 ± 0.055 for the second.

AYSSMCSTMRNKCCL and HITRGVVPTAV are within error of each other in amyloid nucleation score: 0.504 ± 0.6 for the first, 0.655 ± 0.74 for the second.

RVFNLNKKMNFSTISG and HYMDSNIVLNSAKSRRKDAW are within error of each other in amyloid nucleation score: -0.942 ± 1.1 for the first, 0.132 ± 0.24 for the second.

First: SWRAYSSF
Second: YRSFCWEQ
The amyloid nucleation score of the first is higher: 2.73 ± 0.081 for the first, -0.581 ± 0.56 for the second.

Going from GDTAWFKVDQLPRLPNTRLQ to GYVFHYVSIQL, the amyloid nucleation score rises from 0.998 ± 0.74 to 7.957 ± 0.027.

Going from EFMGVSR to MSLGMCFKWRHRNIVYNLSA, the amyloid nucleation score falls from 1.51 ± 0.52 to -0.408 ± 0.63.

TLFGHFSYFQD and VRFSVLRFGKLCPSGLWRVR are within error of each other in amyloid nucleation score: -0.124 ± 0.65 for the first, 0.255 ± 1.1 for the second.

First: ILVYDEVTSYQDPYFS
Second: WLVIPWRCSNDRHIWLWELQ
The amyloid nucleation score of the first is lower: -0.69 ± 0.63 for the first, 1.55 ± 0.53 for the second.

Going from CTYVYESRHQGIGVLASLSN to CTVTK, the amyloid nucleation score rises from -0.784 ± 0.76 to 1.45 ± 0.11.

First: AFGFSI
Second: KMDRDS
The amyloid nucleation score of the first is lower: -1.3 ± 0.42 for the first, -0.125 ± 0.38 for the second.

Going from LSMDRESFINERWSSQRVMV to FARGNINLMVVFVFFDS, the amyloid nucleation score rises from -0.02 ± 0.5 to 5.766 ± 0.049.

SFFVIGW and RISLERGNDFVTWVVYMKWA are within error of each other in amyloid nucleation score: 0.102 ± 0.17 for the first, -0.081 ± 0.34 for the second.

First: NSTFLCLVGFFCLVFSLRQG
Second: HILRQGQYGYVCCASASYEC
The amyloid nucleation score of the first is lower: 3.77 ± 0.1 for the first, 7.312 ± 0.038 for the second.

Going from LGIDAYCPWCVYECFSSRGE to MSMSHSAGDRDGWIFDHRDV, the amyloid nucleation score falls from 9.586 ± 0.057 to 1.46 ± 0.61.

CLLIGLAMGMVCSLPLGRIL and SWMAQCLPRYTHIADQSDGS are within error of each other in amyloid nucleation score: 0.123 ± 1 for the first, 0.238 ± 0.17 for the second.

IYLRESSVYILVFLRTFLVA and LCWLIVGKCGKGKTYDGFIG are within error of each other in amyloid nucleation score: -0.542 ± 0.64 for the first, -0.78 ± 1.1 for the second.

First: RFQWSCEVRESPPLNVDLMG
Second: FDLVGDGYCNYALEYTRLNM
The amyloid nucleation score of the first is higher: 1.41 ± 0.44 for the first, -1.15 ± 1.1 for the second.

PVALLAIRMNIDVVN and RDIMR are within error of each other in amyloid nucleation score: -0.353 ± 0.49 for the first, 0.57 ± 0.5 for the second.

First: PRDRLSSGPLQWHGFIIGYV
Second: LNTKTCVIPSTTCVTIPERE
The amyloid nucleation score of the first is higher: 0.676 ± 0.23 for the first, 0.242 ± 0.17 for the second.

Going from VIGTTGMYLCVVLETIHNWC to DGNFHNFLLCNNEMFREMDC, the amyloid nucleation score rises from 1.07 ± 0.26 to 2.63 ± 0.13.

Going from FMLSVPNVDRFVRRMLGTPE to YDLLGHKAVFEGERVNW, the amyloid nucleation score falls from 1.05 ± 0.42 to 0.003 ± 0.4.

VLAKISTTE and TSCGCTW are within error of each other in amyloid nucleation score: 0.705 ± 0.15 for the first, 0.092 ± 1.1 for the second.

YGQAMWASIFMIYRLPKTLR and IRSMACDIPGV are within error of each other in amyloid nucleation score: -1.13 ± 0.28 for the first, -0.255 ± 0.65 for the second.

Going from KIRSLCPRRKVILSASGQQL to SLISKEFVGLVGGET, the amyloid nucleation score falls from 0.971 ± 0.17 to -0.388 ± 0.25.

Going from DGYIVFSRNAVNIFSVYFTG to GYSLYVYIMDFFTWGNRVII, the amyloid nucleation score falls from 6.212 ± 0.04 to 2.02 ± 0.19.

Compared with LDRMSRIRGSCRYACVL, FSRMPLMDESFWFTCSICVM is higher in amyloid nucleation score: 1.15 ± 0.41 for the first, 2.64 ± 0.068 for the second.

For WDTHLYQDMGCFAHLFIRYF, the amyloid nucleation score was “inactive”.
With GEAMSMTEQMTLTRYNYFMY the amyloid nucleation score was “inactive”.
In the case of LIVESI, the amyloid nucleation score is reported as “inactive”.
With FIYIVAFPIREISGLSNL the amyloid nucleation score was “inactive”.
For KFTLCWRTRMAFMSPWLMRI, the amyloid nucleation score was “inactive”.
In the case of CHSGVFRVKSCTEYRMGLYS, the amyloid nucleation score is reported as “inactive”.
With EDFRGLIKL the amyloid nucleation score was “inactive”.
In the case of IGGLISLGISSIERGYSSLI, the amyloid nucleation score is reported as “inactive”.
